In patent US20230085357A1, “INJECTABLE HIGH CONCENTRATION PHARMACEUTICAL FORMULATIONS AND METHODS OF MANUFACTURING AND USE THEREOF” (Xeris Pharmaceuticals, Inc., priority 2021, published 2023):

Key:
[1] = Bevacizumab pharmacokinetics, plasma concentration after single 100 mg dose IV or SC; type: in vivo; details: female Gottingen minipigs, mean
[2] = IV product; cited from earlier work
[3] = single dose, plasma, uncorrected

Substance	AUC336/D ([1]; dose-corrected) [kg·µg·h/mL/mg]	AUClast/D ([1]; dose-corrected) [kg·µg·h/mL/mg]	AUC∞/D ([1]; dose-corrected) [kg·µg·h/mL/mg]	Cmax/D ([1]; dose-corrected) [kg·µg/mL/mg]	T1/2 ([1]; single dose, plasma) [h]	AUC336 [1, 3] [µg·h/mL]	AUClast [1, 3] [µg·h/mL]	AUC∞ [1, 3] [µg·h/mL]	Cmax [1, 3] [µg/mL]	average clearance rate [2]	half-life [2]
Avastin ®	3084	5215	5357	24.7	227	28380	47990	49271	230	–	–
bevacizumab: human monoclonal antibody that binds Vascular Endothelial Growth Factor (VEGF), commercialized under the AVASTIN® brand	–	–	–	–	–	–	–	–	–	about 0.262 L/day	about 20 days
